This note sets out measurements from PMC4451460 (2015).

The target in the experiment is C4 single-chain Fv antibody (C4 scFv) (human (from a human scFv phage-display …)). The experiment can be described thus: ITC. Background: Isothermal titration calorimetry measures the heat released or taken up as one component is titrated into another.

Regarding MATLEKLMKAFESL [truncated peptide HTT(1-14)], the Ka was found to be 3.09e+06 M⁻¹.
Under MATLEKLMKAFESLKSF [HTT(1-17) peptide, the 17 N-terminal residues of huntingtin] stands 1.8e+07 M⁻¹.
As to MATLEKLMKAFESLK [truncated peptide HTT(1-15)], the Ka was found to be 6.87e+06 M⁻¹.
For MATLEKLMKAFESLKS [truncated peptide HTT(1-16)], the Ka worked out at 9.08e+06 M⁻¹.
